Test in all cases: purified protein
What all share (assay type): biochemical, [Clostridium] scindens

For data set [1], the system named is C[C@]12CCC(=O)C=C1CC[C@@H]1[C@@H]2C(=O)C[C@@]2(C)[C@H]1CC[C@]2(O)C(=O)CO. The following applies: NADH co-substrate (150 μM in standard assay), 20 mM sodium phosphate pH 7.0, 0.1 M NaCl, 20% glycerol, 10 mM 2-mercaptoethanol, reductive direction.
The test system of data set [2] is C[C@]12CCC(=O)C=C1CC[C@@H]1[C@@H]2C(=O)C[C@@]2(C)[C@H]1CC[C@]2(O)[C@@H](O)CO. The following applies: co-substrate not printed for this constant (oxidative direction, NAD+ presumed), 20 mM sodium phosphate pH 7.0, 0.1 M NaCl, 20% glycerol, 10 mM 2-mercaptoethanol.
Data set [3] has as its system C[C@]12CCC(=O)C=C1CC[C@@H]1[C@@H]2[C@@H](O)C[C@@]2(C)[C@H]1CC[C@]2(O)C(=O)CO. The following applies: NADH co-substrate (150 μM in standard assay), 20 mM sodium phosphate pH 7.0, 0.1 M NaCl, 20% glycerol, 10 mM 2-mercaptoethanol, reductive direction.

Consider one substance from article PMC3735941, “Clostridium scindens: a human gut microbe with a high potential to convert glucocorticoids into androgens” (Journal of Lipid Research, 2013).

In general, Km refers to the substrate concentration at which the rate is half of its maximum. As to “DesC (20α-HSDH; desC-ST) ([Clostridium] scindens ATCC 35704)”, the results for the Km in data set [1], in data set [2] and in data set [3] were 5.35 µM, 4.54 µM and 1.46 µM, respectively.
